Experimental findings from patent US20080199851A1 are described below.

The target of assay [1] is Bar-headed GS/QH/15/2005 (H5N1) (Influenza A virus Bar-headed GS/QH/15/2005 (H5N1)). Put plainly: lateral-flow sandwich, B line: M2110171 striped + 2/3-Eu.
The target in assay [2] is A/Beijing/95(H1N1) (Influenza A virus A/Beijing/95 (H1N1)). The description is as above.
Assay [3] addresses DK/VNM/568/2005 (H5N1) (Influenza A virus DK/VNM/568/2005 (H5N1)). The description is as above.
Assay [4] concerns the target B/Shanghai/2002 (Influenza B virus B/Shanghai/2002). The assay is described as above.
Assay [5] addresses A/Taiwan/1/86 (H1N1) (Influenza A virus A/Taiwan/1/86 (H1N1)). The description is as above.
Assay [6] deals with Bar-headed GS/QH/15/2005 (H5N1) (Influenza A virus Bar-headed GS/QH/15/2005 (H5N1)). Put plainly: lateral-flow sandwich, A line: 7304 striped + M4090913-Eu.
For assay [7], the target named is A/Beijing/95(H1N1) (Influenza A virus A/Beijing/95 (H1N1)). The description is as above.
The target of assay [8] is DK/VNM/568/2005 (H5N1) (Influenza A virus DK/VNM/568/2005 (H5N1)). The assay is described as above.
The target in assay [9] is B/Shanghai/2002 (Influenza B virus B/Shanghai/2002). Described as above.
Assay [10] concerns the target A/Taiwan/1/86 (H1N1) (Influenza A virus A/Taiwan/1/86 (H1N1)). The description is as above.
Another assay has as its target H5N1 virus strain F2. In words: cell-based or functional assay.
In a further assay the target is H5N1 virus strain A5. Put plainly: cell-based or functional assay.
Another assay deals with H5N1 virus strain D1. In words: cell-based or functional assay.
In a further assay the target is H5N1 virus strain B3. Put plainly: cell-based or functional assay.
In a further assay the target is H5N1 virus strain H2. In words: cell-based or functional assay.
A further assay concerns the target H5N1 virus strain E1. Put plainly: cell-based or functional assay.
A further assay addresses H5N1 virus strain A2. In words: cell-based or functional assay.
In the next assay the target is H5N1 virus strain A3. In words: cell-based or functional assay.
In a further assay the target is H5N1 virus strain D2. Put plainly: cell-based or functional assay.
A further assay concerns the target H5N1 virus strain H1. Put plainly: cell-based or functional assay.
The target of another assay is H5N1 virus strain G1. In words: cell-based or functional assay.
The next assay has as its target H5N1 virus strain B8. Put plainly: cell-based or functional assay.
In another assay the target is H5N1 virus strain B2. In words: cell-based or functional assay.
For another assay, the target named is H5N1 virus strain A1. Put plainly: cell-based or functional assay.
A further assay concerns the target H5N1 virus strain C3. In words: cell-based or functional assay.
The target of a further assay is H5N1 virus strain E2. In words: cell-based or functional assay.
For another assay, the target named is H5N1 virus strain B6. Put plainly: cell-based or functional assay.
The next assay has as its target H5N1 virus strain B4. Put plainly: cell-based or functional assay.
A further assay concerns the target H5N1 virus strain A7. Put plainly: cell-based or functional assay.
In the next assay the target is H5N1 virus strain A6. Put plainly: cell-based or functional assay.
The next assay addresses H5N1 virus strain B7. Put plainly: cell-based or functional assay.
In the next assay the target is H5N1 virus strain C2. Put plainly: cell-based or functional assay.
For the next assay, the target named is H5N1 virus strain B5. Put plainly: cell-based or functional assay.
The target of the next assay is H5N1 virus strain A8. Put plainly: cell-based or functional assay.
Another assay addresses H5N1 virus strain F3. Put plainly: cell-based or functional assay.
The next assay concerns the target H5N1 virus strain B1. Put plainly: cell-based or functional assay.
Assay [11] addresses H5N1 virus DK/IDN/MS/04 (Influenza A virus DK/IDN/MS/04). Put plainly: cell-based or functional assay.
Assay [12] has as its target H5N1 virus CK/IDN/2A/04 (Influenza A virus CK/IDN/2A/04). In words: cell-based or functional assay.
The target in assay [13] is H5N1 virus CP Heron/HK/18/05 (Influenza A virus CP Heron/HK/18/05). In words: cell-based or functional assay.
In assay [14] the target is Bar-headed GS/QH/15/2005 (H5N1) (Influenza A virus Bar-headed GS/QH/15/2005 (H5N1)). In words: cell-based or functional assay.
Assay [15] has as its target H5N1 virus CK/HK/213/03 (Influenza A virus CK/HK/213/03). Put plainly: cell-based or functional assay.
The target in assay [16] is H5N1 virus Oriental Magpie Robin/HK/366/2006 (Influenza A virus Oriental Magpie Robin/HK/366/2006). Put plainly: cell-based or functional assay.

Turning to “Anti-Flu B nucleoprotein M2110171 (Fitzgerald) (antibody)”, the Signal/noise of test line in assay [1] came out at 0.6; in assay [2] it was 0.5; in assay [3] it was 1; in [4], 376; in assay [5], 0.4.

anti-Flu A Medix 7304 antibody: the Signal/noise of test line was found to be 246 in [6]; 896 in assay [7]; 607 in assay [8]; 3.9 in assay [9]; 493 in assay [10].

B1: 8H5 single chain antibody (scFv, V domains shown)
VH: QVQLQQSGAELMKPGASVKISCKATGYTFSNYWIEWIKQRPGHGLEWIGEILPGSDRTNYNGKFKGKATFTADTSSNTAHMQLSSLTSEDSAVYYCANRYDGYYFGLDYWGQGTSVAVSS
VL: EIVLTQSPAIMSASLGEKVTMSCRASSSVNFVYWYQQRSDASPKLLIYYSSNLAPGVPPRFSGSGSGNSYSLTISGLEGEDAATYYCQHFTSSPYTFGGGTNLEIKR
With B1, the HI titer n (titer = 2^n) (n-th power of 2) amounted to 0 in the assay with H5N1 virus strain F2; 4 with H5N1 virus strain A5; 2.5 in the assay with H5N1 virus strain D1; 5 with H5N1 virus strain B3; 0 with H5N1 virus strain H2; 0 with H5N1 virus strain E1. The HI titer n (titer = 2^n) (n-th power of 2) with H5N1 virus strain A2 amounted to 4.5; with H5N1 virus strain A3, 3.5; with H5N1 virus strain D2, 2; with H5N1 virus strain H1, 0; with H5N1 virus strain G1 it was 0; with H5N1 virus strain B8, 3. In addition, the HI titer n (titer = 2^n) (n-th power of 2) turned out to be 0 with H5N1 virus strain B2; 3.5 with H5N1 virus strain A1; 0 with H5N1 virus strain C3; 0 with H5N1 virus strain E2; 3.5 with H5N1 virus strain B6; 5 in the assay with H5N1 virus strain B4. Besides, the HI titer n (titer = 2^n) (n-th power of 2) with H5N1 virus strain A7 amounted to 3; with H5N1 virus strain A6 it was 3; with H5N1 virus strain B7 it was 4; with H5N1 virus strain C2, 1; with H5N1 virus strain B5 it was 0; with H5N1 virus strain A8 it was 2.5. The values for the HI titer n (titer = 2^n) (n-th power of 2) with H5N1 virus strain F3 and with H5N1 virus strain B1 were 0 and 4, respectively.

B2: 10F7 single chain antibody (scFv)
scFv: QVQLQQPGAELVKPGASVKLSCKASGYTFTSYWMHWVKQRPGQGLEWIGEIDPSDSYTNYNQKFKGKATLTVDKSSSTAYMQLSSLTSEDSAVYYCARGGTGDFHYAMDYWGQGTSVTVSSGGGGSDILMTQSPSSMSVSLGDTVSITCHASQGISSNIGWLQQKPGKSFKGLIYHGTNLEDGVPSRFSGSGSGADYSLTISSLESEDFADYYCVQYVQFPYTFGGGTKLEIKR
As for B2, the neutralization: dilution of 10F7 scFv (fold dilution) in assay [11] was 16; in [12] it was 32; in [13], 8; in [14] it was 16; in [15] it was below 1; in assay [16] it was below 1. The HI titer n (titer = 2^n) (n-th power of 2) with H5N1 virus strain F2 is 0; with H5N1 virus strain A5, above 8; with H5N1 virus strain D1 it was 2.5; with H5N1 virus strain B3, above 8; with H5N1 virus strain H2, 0; with H5N1 virus strain E1, 0. The HI titer n (titer = 2^n) (n-th power of 2) is above 8 with H5N1 virus strain A2; above 8 in the assay with H5N1 virus strain A3; 2.5 with H5N1 virus strain D2; below 1 in the assay with H5N1 virus strain H1; 0 with H5N1 virus strain G1; 7 with H5N1 virus strain B8. Besides, the HI titer n (titer = 2^n) (n-th power of 2) with H5N1 virus strain B2 was 0; with H5N1 virus strain A1, above 8; in the assay with H5N1 virus strain C3, 1; with H5N1 virus strain E2, 0; in the assay with H5N1 virus strain B6 it was 7; with H5N1 virus strain B4 it was above 8. Further, the HI titer n (titer = 2^n) (n-th power of 2) was 6.5 with H5N1 virus strain A7; 7.5 with H5N1 virus strain A6; 7 in the assay with H5N1 virus strain B7; 2 in the assay with H5N1 virus strain C2; 0 in the assay with H5N1 virus strain B5; 6 with H5N1 virus strain A8. Besides, the HI titer n (titer = 2^n) (n-th power of 2) stood at 0 with H5N1 virus strain F3 and 7 in the assay with H5N1 virus strain B1.

B3: 4D1 single chain antibody (scFv)
scFv: QVQLQQPGAELVKPGASVNLSCKASGYTFTSYWMHWVKQRPGQGLEWIGEIDPSDSFTTYNQNFKDRATLTVDKSSSTAYMQLRSLTSEDSAVYYCARGGPGDFRYAMDYWGQGTSVTVSSGGGGSDILMTQSPSSMSVSLGDTVSITCHASQGISSNIGWLQQKPGKSFKGLIYHGTNLEDGVPSRFSGSGSGADYSLTISSLESEDFADYYCVQYVQFPYTFGGGTKLEIKRA
For the molecule B3, the HI titer n (titer = 2^n) (n-th power of 2) with H5N1 virus strain F2 was 5; with H5N1 virus strain A5, above 8; with H5N1 virus strain D1 it was above 8; with H5N1 virus strain B3, above 8; with H5N1 virus strain H2, 4; in the assay with H5N1 virus strain E1 it was 1. Besides, the HI titer n (titer = 2^n) (n-th power of 2) with H5N1 virus strain A2 is above 8; with H5N1 virus strain A3, above 8; with H5N1 virus strain D2, 7.5; with H5N1 virus strain H1, 6; with H5N1 virus strain G1 it was 3.5; with H5N1 virus strain B8 it was above 8. The HI titer n (titer = 2^n) (n-th power of 2) is 0 with H5N1 virus strain B2; above 8 with H5N1 virus strain A1; above 8 with H5N1 virus strain C3; 1 with H5N1 virus strain E2; above 8 with H5N1 virus strain B6; above 8 in the assay with H5N1 virus strain B4. In addition, the HI titer n (titer = 2^n) (n-th power of 2) is 6 with H5N1 virus strain A7; 7 with H5N1 virus strain A6; above 8 with H5N1 virus strain B7; above 8 in the assay with H5N1 virus strain C2; 0 in the assay with H5N1 virus strain B5; above 8 in the assay with H5N1 virus strain A8. For the same molecule, the HI titer n (titer = 2^n) (n-th power of 2) is 3 in the assay with H5N1 virus strain F3 and above 8 with H5N1 virus strain B1.
